Results reported in patent US20020077289A1, “Angiostatin and endostatin binding proteins and methods of use” (priority 2000, published 2002).
“Also recorded” adds a separate entry of the source. Bridges are numbered along the chain shown (N, C = ends). Where no end group is shown, it is not given here.

Key:
[1] = molecular target: T1, rhTM3 (human tropomyosin isoform 3) (Homo sapiens, UniProt P09493); experiment: Surface plasmon resonance (BIAcore) binding to immobilized rhTM3
T1 construct: made in house; host or cells: E. coli BL21 (DE3), pET-21a(+)
T1 sequence (P09493 1-284 isoform P09493-3): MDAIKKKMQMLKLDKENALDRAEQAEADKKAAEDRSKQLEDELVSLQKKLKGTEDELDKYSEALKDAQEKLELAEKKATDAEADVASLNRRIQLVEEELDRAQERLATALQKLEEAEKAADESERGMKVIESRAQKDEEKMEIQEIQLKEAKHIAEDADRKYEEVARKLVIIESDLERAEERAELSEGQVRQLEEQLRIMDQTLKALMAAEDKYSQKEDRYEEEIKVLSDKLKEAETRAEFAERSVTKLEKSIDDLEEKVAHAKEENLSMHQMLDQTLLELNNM
Description: (A), 0, 10, 20, 40, 80 and 160 micromolar (μM) of rhEndostatin were injected at 5 microliters per minute (μl/minute) for 960 seconds through a biosensor flow cell that had been activated and blocked as a control for bulk refractive index and subsequently through a flow cell to which 3200 response units (RU) of rhTM3 had been immobilized. The binding kinetics were recorded and the differences between the two curves plotted for each rhEndostatin concentration. (B), 0, 11.5, 23 and 46 micromolar (μM) of rhAngiostatin were injected at 5 microliters per minute (μl/minute) for 900 seconds over a flow cell containing 3200 RU of rhTM3 as above. Samples were run in duplicate, the data corrected for bulk shift and the average of the 2 curves plotted. (C), Injection of 5 micromolar (μM) of rhEndostatin at 5 microliters per minute (μl/minute) for 240 seconds in the presence of 0, 6, 15, 30 and 45 micromolar (μM) of soluble rhTM3 over a flow cell containing 2000 RU of rhTM3. Samples were run in duplicate, the reference cell values subtracted and the average of each of the 2 curves plotted. The spikes in RU seen at the beginning and end of each injection are due to lag in flow caused by the rhTM3 and reference cells being non-adjacent.
Interactions between purified soluble rhEndostatin and rhTM3 were evaluated by surface plasmon resonance using the BIAcore 3000 (BiaCore, Piscataway, N.J.). The purified rhTM3 was immobilized on the flow cell of a CM-5 BIAcore biosensor chip. The running buffer was 0.01 M HEPES, pH 7.4, 0.15M NaCl and 0.005% polysorbate 20 (v/v). The competition experiments involving soluble rhTM3 were performed using PBS pH 7.4 as running buffer. All measurements were performed at 25° C. To correct for differences in bulk refraction all protein preparations were passed over an activated and blocked flow cell to which no protein had been coupled. Effects due to bulk shift were subtracted from experimental data.
Surface plasmon resonance performed using the BIAcore 3000 (BiaCore, Piscataway, N.J.) was used to assess the kinetics of rhEndostatin/rhTM3 binding. […]

rhEndostatin = molecular target: T2, rhEndostatin (Homo sapiens, UniProt P39060); experiment: ELISA of tropomyosin binding to rhEndostatin coated wells; details: wells coated with 5 μg/ml rhEndostatin or BSA, detection with TM311 anti-tropomyosin
T2 construct: rhEndostatin were produced in P. pastoris and purified to homogeneity; made in house; host or cells: Pichia pastoris
T2 sequence (P39060 1572-1754 limits assumed): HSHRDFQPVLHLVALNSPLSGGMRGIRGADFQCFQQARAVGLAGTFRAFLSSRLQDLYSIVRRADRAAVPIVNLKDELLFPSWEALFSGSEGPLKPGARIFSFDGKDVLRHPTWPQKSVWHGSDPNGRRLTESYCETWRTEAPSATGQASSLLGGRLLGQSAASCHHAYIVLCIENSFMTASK
Description: FIG. 13 provides a graph showing that rhTM3 binds rhEndostatin in vitro. The wells of a 96-well plate were coated with either 5 micrograms/milliliter (μg/ml) of rhEndostatin (closed symbols) or BSA (open symbols) and incubated with increasing amounts of control E. coli lysate (circles) or tropomyosin expressing λ21-1 bacterial lysate (squares). The amount of tropomyosin binding to each well was determined spectrophotometrically following the addition of the TM311 anti-tropomyosin ascites fluid, alkaline phosphatase conjugated anti-mouse IgG and substrate. Error bars indicate standard deviation of the mean.
Plates were coated with 5 μg/ml of BSA or rhEndostatin and blocked. Dilutions of λ21-1 or control lysate were added and incubated for 1 hour at 37° C., followed by incubation with 1:500 diluted anti-tropomyosin TM311 ascites fluid (Sigma, St. Louis, Miss.). Following incubation in 1:5000 diluted anti-mouse IgG (H+L) conjugated to alkaline phosphatase (Promega, Madison, Wis.) wells were developed using Blue Phos Phosphatase Substrate (Kirkegaard and Perry, Gaithersburg, Md.) and the OD635 measured.
In this experiment the wells of a 96 well plate were either coated with 5 μg/ml of Endostatin protein or BSA protein. […] The wells were washed and incubated with anti-tropomyosin antibodies followed by anti-mouse IgG AP conjugated antibodies and developed using KPL Blue Phos microwell phosphatase solution. The OD635 was measured after a one hour incubation at room temperature and the results plotted in FIG. 8.
Recombinant human Endostatin protein and hTM3 were also shown to interact in a capture ELISA (FIG. 8).

HUVEC microfilaments = experiment: Fluorescent staining of formalin fixed endothelial cells with Alexa 488-labeled rhEndostatin; assay type: cell-based, human; details: 50-fold molar excess (100 μM) of peptide; 40 μg/ml (2 μM) Alexa-rhEndostatin
Description: (A), HUVECs, (B), HAECs and (C), HMVECs were incubated in the presence of 40 micrograms per milliliter (μg/ml) Alexa 488-labeled rhEndostatin and photographed at 100× magnification under Alexa 488 (green) excitation wavelength. (D) and (E), HUVECs were incubated simultaneously in anti-tropomyosin TM311 ascites fluid and 40 micrograms per milliliter (μg/ml) Alexa 488-labeled rhEndostatin followed by incubation in Alexa 594 conjugated goat anti-mouse IgG (H+L). The same field was photographed under Alexa 488 (green) and Alexa 594 (red) excitation wavelengths at 100× magnification.
HUVECs were incubated in the presence of 40 micrograms per milliliter (μg/ml) Alexa 488-labeled rhEndostatin alone (A), or in the presence of a 50-fold molar excess of control peptide (B), or E37 peptide (C). Cells were photographed using the same exposure times at 100x magnification under Alexa 488 (green) excitation wavelength.
To detect the binding of Alexa-labeled rhEndostatin 1×10^4 HUVEC, HMVEC and HAECs were plated on 1.5% gelatin coated Nalge Nunc Lab Tek II chamber slides (Naperville, Ill.) and fixed in 10% neutral buffered formalin followed by a methanol wash. The chamber slides were incubated in PBS/1% calf serum containing 40 μg/ml (2 μM) of Alexa 488-labeled rhEndostatin (Narum et al., manuscript in preparation) for 1 hr at room temperature. The slides were washed in PBS, coverslips mounted using fluorescent mounting media (Kirkegaard and Perry Laboratories, Gaithersburg, Md.) and cells photographed under Alexa 488 excitation wavelength. Co-localization studies were performed as above except cells were incubated in PBS/1% calf serum containing 1:200 mouse anti-tropomyosin TM311 (Sigma, St. Louis, Miss.) and 40 μg/ml of Alexa 488-labeled rhEndostatin followed by incubation with goat anti-mouse IgG (H+L) conjugated to Alexa 594 (Molecular Probes, Eugene, Oregon). The same fields were photographed under Alexa 488 and Alexa 594 wavelengths. […]

B16-BL6 melanoma cells = experiment: B16-BL6 experimental metastasis assay; assay type: in vivo, C57BL/6J mice; details: co-injection of 1.5 nmol rhEndostatin and up to 375 nmol control peptide; p>0.11
Description: C57BL/6J mice were injected via the tail vein with 5×10^4 B16-BL6 melanoma cells on day 0. On day 3, groups of five mice received daily subcutaneous doses of either buffer control, 1.5 nmol (1.5 mg/kg/day) of rhEndostatin in combination with 0, 15, 75 or 375 nmol of control or E37 peptide, or control or E37 peptide alone for eleven days. All mice were sacrificed on day 14, and the number of pulmonary surface metastases in each animal counted. Error bars indicate standard deviation of the mean.
C57BL/6J mice (n=8) were injected intravenously (i.v.) with 5×10^4 B16-BL6 cells/mouse. Three days later treatment commenced. 100 μl of citrate-phosphate buffer (66 mM Sodium Phosphate, 17 mM Citric acid, 59 mM NaCl pH 6.2) containing 1.5 nmol of rhEndostatin and 100 μl of PBS containing either 0, 15, 75 or 375 nmol of control or E37 peptide were mixed and injected subcutaneously (s.c.) daily for 11 days. All mice were then sacrificed, their lungs removed and the number of surface metastases counted. Results were analyzed for statistical significance using the 2-tailed Student's t-test.
The following experiment was conducted to determine the interaction of E37 peptide and Endostatin protein. Briefly, the B16BL6 experimental metastasis assay, as known to those of skill in the art and further described in International Patent Application number PCT/US99/11418, was performed as follows. 5×10^4 B16-BL6 cells in 200 μl of PBS were injected into C57BL/6J mice via the tail vein. Three days post injection treatment was started. The injection received by eight groups of mice were: 1) citrate phosphate/PBS buffer, 2) ^30 μg Endostatin protein (in 100 μl PBS), 3) 30 μg Endostatin protein (in 200 μl PBS), 4) 30 μg Endostatin protein plus 50 times molar excess of control peptide (in 200 μl PBS), 5) 30 μg Endostatin protein plus 250 times molar excess of control peptide (in 200 μl PBS), 6) 30 μg Endostatin protein plus 10 times molar excess of E37 peptide (in 200 μl PBS), 7) 30 μg Endostatin protein plus 50 times molar excess of E37 peptide (in 200 μl PBS), and 8) 30 μg Endostatin protein plus 250 times molar excess of E37 peptide (in 200 μl PBS). Doses were administered daily for eleven days posterior to the thoracic cavity subcutaneously. All mice were sacrificed, the lungs removed and the number of surface metastases in each animal were counted under a stereo microscope.

[2] = molecular target: recombinant human Endostatin protein (human); experiment: cell-based or functional assay

For “rhTM3: recombinant human tropomyosin isoform 3 (fibroblast tropomyosin), SEQ ID NO:119; also as λ21-1 bacterial lysate (EKVAHAKEENLSMHQMLDQTLLELNNM)”, the “competition for binding of rhEndostatin to immobilized rhTM3” value ([1]; 5 μM rhEndostatin with 0-45 μM soluble rhTM3, 2000 RU immobilized rhTM3) was “competed for the binding of rhEndostatin”, the “binding of tropomyosin to rhEndostatin” value (rhEndostatin) was “binds” and the “binding of tropomyosin to rhEndostatin” value (rhEndostatin; listed as hTM3) was “higher immunoreactivity in rhEndostatin coated wells than in wells coated with BSA; also recorded: binds”. For the same molecule, the “binding of tropomyosin to rhEndostatin” value (rhEndostatin; listed as tropomyosin) was “considerably more tropomyosin bound”.

With “CSNSDKPKCGGGS (disulfide 1-9 (inferred)) [control peptide, reference compound]” the “inhibition of binding of Alexa-labeled rhEndostatin to HUVEC microfilaments” value (HUVEC microfilaments) was “not” and the “incidence of metastatic lesions on the lungs versus 1.5 nmol rhEndostatin alone” value (B16-BL6 melanoma cells) was “statically indistinguishable”.

With CTHWWHKRCGGGS (disulfide 1-9) [E37 peptide (synthetic, cyclized)] the decrease in the anti-tumor activity of rhEndostatin (B16-BL6 lung metastases), 1.5 nmol rhEndostatin co-injected with 15 nmol E37 peptide [2] was 11 percent, the decrease in the anti-tumor activity of rhEndostatin (B16-BL6 lung metastases), 1.5 nmol rhEndostatin co-injected with 75 nmol E37 peptide [2] was 30.5 percent and the decrease in the anti-tumor activity of rhEndostatin (B16-BL6 lung metastases), 1.5 nmol rhEndostatin co-injected with 375 nmol E37 peptide [2] was 84.5 percent. The inhibition of lung metastasis, 1.5 nmol rhEndostatin co-administered with a 250-fold molar excess of E37 peptide [2] was 11%, the inhibition of the formation of lung metastasis (B16BL6), 30 µg Endostatin protein plus 10 fold molar excess of E37 peptide [2] was 76% and the inhibition of the formation of lung metastasis (B16BL6), 30 µg Endostatin protein plus 50 fold molar excess of E37 peptide [2] was 61%. It also gave an inhibition of the formation of lung metastasis (B16BL6), 30 µg Endostatin protein plus 250 fold molar excess of E37 peptide [2] of 21%.

B1: rhAngiostatin K1-3: recombinant human Angiostatin kringles 1-3 produced in P. pastoris, used as negative control (protein)
chain: VYLSECKTGNGKNYRGTMSKTKNGITCQKWSSTSPHRPRFSPATHPSEGLEENYCRNPDNDPQGPWCYTTDPEKRYDYCDILECEEECMHCSGENYDGKISKTMSGLECQAWDSQSPHAHGYIPSKFPNKNLKKNYCRNPDRELRPWCFTTDPNKRWELCDIPRCTTPPPSSGPTYQCLKGTGENYRGNVAVTVSGHTCQHWSAQTPHTHNRTPENFPCKNLDENYCRNPDGKRAPWCHTTNSQVRWEYCKIPSCDSSPV
For B1, the “specific binding to immobilized rhTM3” value ([1]; negative control, similar concentrations (0-46 μM) passed over the rhTM3 chip) was “no evidence of specific binding”.
